The text below walks through data of the supplement of paper PMC10126150.

± gives the standard deviation of the averaged measurements.

The series concerns ATP. Nature of the series: switch fluorescence ratio, 500 uM ATP over buffer (Cy3 cluster intensity, sum of 5 cycles each) (fold (ratio)); higher = stronger signal-on switching upon ATP binding; sequences stand for … in TCGTCGGCAGCGTCAGATGTGTATAAGAGACAGTTTTTTTTTTTTTTTTTTTTTTTTT…TC. To be noted: aptamer strand: ATP DNA aptamer (quencher-CACCTGGGGGAGTATTGCGGAGGAAGG + anchor), 100 nM annealed; ATP concentration: 500 uM. The essentials: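 Five buffer/ATP imaging cycles were run on Cy3-labelled switching-strand clusters on a modified Illumina MiSeq flow-cell, with NaOH stripping and re-annealing between cycles. In each cycle, clusters annealed to 100 nM quencher-labelled ATP aptamer were imaged in selection buffer, then after 15 min with 500 uM ATP at 22 °C. Per cluster, the fluorescence ratio is summed target-cycle over summed buffer-cycle Cy3 intensity, averaged per switch-domain sequence. Only clusters within 100-1000 RFU were kept.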
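Also: ATP exposure 15 min at 22 °C before imaging.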

Take CTGATATTTG: the switch fluorescence ratio was found to be 0.998 ± 0.022.
